Laboratory results published in the supplement of paper PMC10126150.
± gives the standard deviation of the averaged measurements.

tested on: ATP; assay: switch fluorescence ratio, 500 uM ATP over buffer (Cy3 cluster intensity, sum of 5 cycles each) (fold (ratio)); higher = stronger signal-on switching upon ATP binding; sequences stand for … in TCGTCGGCAGCGTCAGATGTGTATAAGAGACAGTTTTTTTTTTTTTTTTTTTTTTTTT…TC; details: aptamer strand: ATP DNA aptamer (quencher-CACCTGGGGGAGTATTGCGGAGGAAGG + anchor), 100 nM annealed; ATP concentration: 500 uM
Summary of the method: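 Values give the fluorescence ratio for each switch-domain sequence, averaged from per-cluster ratios of summed target-cycle to summed buffer-cycle Cy3 intensity. The Cy3-labelled switching-strand clusters sat on a modified Illumina MiSeq flow-cell, were annealed to 100 nM quencher-labelled ATP aptamer, and were imaged in selection buffer, then after 15 min with 500 uM ATP at 22 °C. Five cycles ran with NaOH stripping and re-annealing between them, and clusters outside 100-1000 RFU were excluded.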
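Further: ATP exposure 15 min at 22 °C before imaging.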

CAGGAACTGT and CAGGAACTTG are within error of each other in switch fluorescence ratio: 0.985 ± 0.018 for the first, 0.956 ± 0.023 for the second.

CAGGAAGGAT and CAGGAATATA are within error of each other in switch fluorescence ratio: 0.994 ± 0.016 for the first, 1.014 ± 0.0049 for the second.

CAGGACCTCG and CAGGAGAAGG are within error of each other in switch fluorescence ratio: 1.03 ± 0.024 for the first, 1.05 ± 0.022 for the second.

Compared with CAGGAGACGA, CAGGAGCTGT is higher in switch fluorescence ratio: 1.03 ± 0.025 for the first, 1.2 ± 0.034 for the second.

CAGGATACGC and CAGGATCATG are within error of each other in switch fluorescence ratio: 1.21 ± 0.34 for the first, 1.11 ± 0.15 for the second.

CAGGATTTGG and CAGGATTTTT are within error of each other in switch fluorescence ratio: 0.985 ± 0.013 for the first, 0.993 ± 0.042 for the second.

CAGGCCTAGG and CAGGCGACTG are within error of each other in switch fluorescence ratio: 0.946 ± 0.024 for the first, 0.9706 ± 0.0041 for the second.

CAGGCGAGGG and CAGGCGTGCA are within error of each other in switch fluorescence ratio: 0.9905 ± 0.0078 for the first, 0.998 ± 0.018 for the second.

CAGGCTGGAC and CAGGCTGTCG are within error of each other in switch fluorescence ratio: 1.06 ± 0.046 for the first, 1.02 ± 0.036 for the second.

CAGGCTTTTT and CAGGGAGCTT are within error of each other in switch fluorescence ratio: 1 ± 0.029 for the first, 1.01 ± 0.03 for the second.

First: CAGGGAGGGA
Second: CAGGGATGTG
The switch fluorescence ratio of the first is lower: 0.992 ± 0.02 for the first, 1.03 ± 0.013 for the second.

CAGGGATTAA and CAGGGATTTT are within error of each other in switch fluorescence ratio: 0.9842 ± 0.0036 for the first, 0.98 ± 0.022 for the second.

Going from CAGGGCGATA to CAGGGCGGA, the switch fluorescence ratio falls from 1.1 ± 0.033 to 0.993 ± 0.015.

First: CAGGGCGGGC
Second: CAGGGCTATT
The switch fluorescence ratio of the first is lower: 0.84 ± 0.073 for the first, 1.01 ± 0.037 for the second.

CAGGGGAGCG and CAGGGGCCGG are within error of each other in switch fluorescence ratio: 0.993 ± 0.037 for the first, 0.978 ± 0.018 for the second.

CAGGGGCGGA and CAGGGGCGGG are within error of each other in switch fluorescence ratio: 1.04 ± 0.03 for the first, 0.966 ± 0.11 for the second.

CAGGGGGAAT and CAGGGGGGG are within error of each other in switch fluorescence ratio: 1.1 ± 0.11 for the first, 1 ± 0.011 for the second.

CAGGGGGGGG and CAGGGGGGGT are within error of each other in switch fluorescence ratio: 1.01 ± 0.031 for the first, 1.03 ± 0.061 for the second.

Going from CAGGGGTGCG to CAGGGTACGC, the switch fluorescence ratio rises from 0.991 ± 0.013 to 1.04 ± 0.016.

Compared with CAGGGTTAAT, CAGGGTTCGT is lower in switch fluorescence ratio: 1.012 ± 0.0094 for the first, 0.9894 ± 0.0081 for the second.

CAGGGTTGGG and CAGGGTTTGG are within error of each other in switch fluorescence ratio: 1 ± 0.019 for the first, 1.01 ± 0.023 for the second.

First: CAGGGTTTTA
Second: CAGGTCGACG
The switch fluorescence ratio of the first is lower: 1.006 ± 0.0055 for the first, 1.05 ± 0.032 for the second.

Going from CAGGTCGCTT to CAGGTCTTGA, the switch fluorescence ratio falls from 1.01 ± 0.0019 to 0.9888 ± 0.0014.

Compared with CAGGTGGGGT, CAGGTTATAT is lower in switch fluorescence ratio: 1.16 ± 0.08 for the first, 1.03 ± 0.028 for the second.

CAGGTTTCGG and CAGGTTTCGT are within error of each other in switch fluorescence ratio: 0.987 ± 0.022 for the first, 0.989 ± 0.021 for the second.

CAGGTTTGGC and CAGGTTTTGG are within error of each other in switch fluorescence ratio: 0.9775 ± 0.002 for the first, 0.964 ± 0.034 for the second.

CAGTAAATGT and CAGTAAGAAT are within error of each other in switch fluorescence ratio: 0.984 ± 0.054 for the first, 0.9809 ± 0.0019 for the second.

First: CAGTAAGAGC
Second: CAGTAATTAT
The switch fluorescence ratio of the first is lower: 0.935 ± 0.0095 for the first, 0.997 ± 0.02 for the second.

CAGTAGGGTA and CAGTATGCAC are within error of each other in switch fluorescence ratio: 1 ± 0.045 for the first, 1.01 ± 0.047 for the second.

CAGTATGGGA and CAGTCAGAGT are within error of each other in switch fluorescence ratio: 0.999 ± 0.02 for the first, 0.985 ± 0.023 for the second.

Going from CAGTCGTCGA to CAGTCTACGA, the switch fluorescence ratio rises from 1.001 ± 0.0033 to 1.03 ± 0.015.

CAGTCTTGC and CAGTGAAAAA are within error of each other in switch fluorescence ratio: 1.03 ± 0.021 for the first, 1.06 ± 0.089 for the second.

CAGTGAGGGA and CAGTGAGGGG are within error of each other in switch fluorescence ratio: 0.9804 ± 0.004 for the first, 0.984 ± 0.029 for the second.

First: CAGTGATCTT
Second: CAGTGCGCGC
The switch fluorescence ratio of the first is lower: 0.97521 ± 0.00076 for the first, 1.01 ± 0.026 for the second.

CAGTGGAGGA and CAGTGGGGGA are within error of each other in switch fluorescence ratio: 1 ± 0.024 for the first, 0.993 ± 0.022 for the second.

CAGTGGGGGT and CAGTGGGTCT are within error of each other in switch fluorescence ratio: 1 ± 0.03 for the first, 0.992 ± 0.017 for the second.

CAGTGTCCGC and CAGTTAGCAG are within error of each other in switch fluorescence ratio: 1.07 ± 0.018 for the first, 1.06 ± 0.025 for the second.

CAGTTATTCG and CAGTTATTGG are within error of each other in switch fluorescence ratio: 0.977 ± 0.014 for the first, 0.978 ± 0.038 for the second.

Going from CAGTTCCCGC to CAGTTCGGGG, the switch fluorescence ratio falls from 1.16 ± 0.055 to 0.9729 ± 0.0094.

CAGTTCTCTA and CAGTTGAGGT are within error of each other in switch fluorescence ratio: 0.981 ± 0.0068 for the first, 0.998 ± 0.013 for the second.

CAGTTGGGGG and CAGTTTACGT are within error of each other in switch fluorescence ratio: 1 ± 0.031 for the first, 0.983 ± 0.023 for the second.

CAGTTTATGA and CAGTTTGCTG are within error of each other in switch fluorescence ratio: 0.971 ± 0.039 for the first, 0.979 ± 0.018 for the second.

Going from CAGTTTGGGT to CATAAGGCAA, the switch fluorescence ratio rises from 1.01 ± 0.081 to 1.282 ± 0.0088.

CATAAGGTTT and CATAATAATC are within error of each other in switch fluorescence ratio: 0.971 ± 0.04 for the first, 0.98 ± 0.026 for the second.

CATAATGAAG and CATAATGCGG are within error of each other in switch fluorescence ratio: 1.01 ± 0.014 for the first, 1.005 ± 0.0012 for the second.

CATAATTAAT and CATACTCTTC are within error of each other in switch fluorescence ratio: 0.955 ± 0.023 for the first, 1 ± 0.065 for the second.

Going from CATAGCATCC to CATAGCTAGG, the switch fluorescence ratio falls from 1.48 ± 0.2 to 1.004 ± 0.0075.

CATAGCTGTG and CATAGGAGGC are within error of each other in switch fluorescence ratio: 1.01 ± 0.026 for the first, 1 ± 0.031 for the second.

CATAGGCTGG and CATAGGGACG are within error of each other in switch fluorescence ratio: 0.985 ± 0.016 for the first, 0.989 ± 0.083 for the second.

CATAGGGCCA and CATAGGGGAA are within error of each other in switch fluorescence ratio: 1 ± 0.012 for the first, 1.01 ± 0.011 for the second.
